Results taken from the supplement of paper PMC12338614.
± gives the uncertainty stated by the source.

B1: library; numbered along this chain (parent)
chain: MEVVDPQQLGMFTEGELMSVGMDTFIHRIDSTEVIYQPRRKRAKLIGKYLMGDLLGEGSYGKVKEVLDSETLCRRAVKILKKKKLRRIPNGEANVKKEIQLLRRLRHKNVIQLVDVLYNEEKQKMYMVMEYCVCGMQEMLDSVPEKRFPVCQAHGYFCQLIDGLEYLHSQGIVHKDIKPGNLLLTTGGTLKISDLGVAEALHPFAADDTCRTSQGSPAFQPPEIANGLDTFSGFKVDIWSAGVTLYNITTGLYPFEGDNIYKLFENIGKGSYAIPGDCGPPLSDLLKGMLEYEPAKRFSIRQIRQHSWFRKKHPPAEAPVPIPPSPDTKDRWRSMTVVPYLEDLHGADEDEDLFDIEDDIIYTQDFTVPGQVPEEEASHNGQRRGLPKAVCMNGTEAAQLSTKSRAEGRAPNPARKACSASSKIRRLSACKQQ

Variants of: B1
Assay: STK11 functional score (HeLa growth suppression), rescaled enrichment; synonymous median = 1, nonsense median = 0 (normalised score)
Conditions: with HeLa; variant type: missense
In short: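 HeLa cells carrying an AAVS1 landing pad received codon-optimised STK11 libraries made by codon randomisation (POPCode), integrated by Bxb1, with three regions each transfected three times. Integrants that were BFP-negative and mCherry-positive were sorted by FACS 4–5 days after electroporation and then grown for about two weeks. Tiled amplicons from gDNA were sequenced on NextSeq at ~2 million reads per tile. The functional score is a wild-type-corrected log ratio of post- to pre-selection counts, rescaled to the synonymous and nonsense medians, merged across codons and replicate transfections, and given a bootstrapped error.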

| Variant | STK11 functional score |
| --- | --- |
| MEVVDPQQLGMFTEGELMSVGMDTFIHRIDSTEVIYQPRRKRAKLIGKYLMGDLLGEGSYGKVKEVLDSETLCRRAVKILKKKKLRRIPNGEANVKKEIQLLRRLRHKNVIQLVDVLYNEEKQKMYMVMEYCVCGMQEMLDSVPEKRFPVCQAHGYFCQLIDGLEYLHSQGIVHKDIKPGNLLLTTGGTLKISDLGVAEALHPFALDDTCRTSQGSPAFQPPEIANGLDTFSGFKVDIWSAGVTLYNITTGLYPFEGDNIYKLFENIGKGSYAIPGDCGPPLSDLLKGMLEYEPAKRFSIRQIRQHSWFRKKHPPAEAPVPIPPSPDTKDRWRSMTVVPYLEDLHGADEDEDLFDIEDDIIYTQDFTVPGQVPEEEASHNGQRRGLPKAVCMNGTEAAQLSTKSRAEGRAPNPARKACSASSKIRRLSACKQQ [A206L] | 1.03 ± 0.21 |
| MEVVDPQQLGMFTEGELMSVGMDTFIHRIDSTEVIYQPRRKRAKLIGKYLMGDLLGEGSYGKVKEVLDSETLCRRAVKILKKKKLRRIPNGEANVKKEIQLLRRLRHKNVIQLVDVLYNEEKQKMYMVMVYCVCGMQEMLDSVPEKRFPVCQAHGYFCQLIDGLEYLHSQGIVHKDIKPGNLLLTTGGTLKISDLGVAEALHPFAADDTCRTSQGSPAFQPPEIANGLDTFSGFKVDIWSAGVTLYNITTGLYPFEGDNIYKLFENIGKGSYAIPGDCGPPLSDLLKGMLEYEPAKRFSIRQIRQHSWFRKKHPPAEAPVPIPPSPDTKDRWRSMTVVPYLEDLHGADEDEDLFDIEDDIIYTQDFTVPGQVPEEEASHNGQRRGLPKAVCMNGTEAAQLSTKSRAEGRAPNPARKACSASSKIRRLSACKQQ [E130V] | 0.458 ± 0.082 |
| MEVVDPQQLGMFTEGELMSVGMDTFIHRIDSTEVIYQPRRKRAKLIGKYLMGDLLGEGSYGKVKEVLDSETLCRRAVKILKKKKLTRIPNGEANVKKEIQLLRRLRHKNVIQLVDVLYNEEKQKMYMVMEYCVCGMQEMLDSVPEKRFPVCQAHGYFCQLIDGLEYLHSQGIVHKDIKPGNLLLTTGGTLKISDLGVAEALHPFAADDTCRTSQGSPAFQPPEIANGLDTFSGFKVDIWSAGVTLYNITTGLYPFEGDNIYKLFENIGKGSYAIPGDCGPPLSDLLKGMLEYEPAKRFSIRQIRQHSWFRKKHPPAEAPVPIPPSPDTKDRWRSMTVVPYLEDLHGADEDEDLFDIEDDIIYTQDFTVPGQVPEEEASHNGQRRGLPKAVCMNGTEAAQLSTKSRAEGRAPNPARKACSASSKIRRLSACKQQ [R86T] | 1.69 ± 0.18 |
| MEVVDPQQLGMFTEGELMSVGMDTFIHRIDSTEVIYQPRRKRAKLIGKYLMGDLLGEGSYGKVKEVLDSETLCRRAVKILKKKKLRRIPNGEANVKKEIQLLRRLRHKNVIQLVDVLYNEEKQKMYMVIEYCVCGMQEMLDSVPEKRFPVCQAHGYFCQLIDGLEYLHSQGIVHKDIKPGNLLLTTGGTLKISDLGVAEALHPFAADDTCRTSQGSPAFQPPEIANGLDTFSGFKVDIWSAGVTLYNITTGLYPFEGDNIYKLFENIGKGSYAIPGDCGPPLSDLLKGMLEYEPAKRFSIRQIRQHSWFRKKHPPAEAPVPIPPSPDTKDRWRSMTVVPYLEDLHGADEDEDLFDIEDDIIYTQDFTVPGQVPEEEASHNGQRRGLPKAVCMNGTEAAQLSTKSRAEGRAPNPARKACSASSKIRRLSACKQQ [M129I] | 0.692 ± 0.11 |
| MEVVDPQQLGMFTEGELMSVGMDTFIHRIDSTEVIYQPRRKRAKLIGKYLMGDLLGEGSYGKVKEVLDSETLCRRAVKILKKKKLRRIPNGEANVKKEIQLLRRLRHKNVIQLVDVLYNEEKQKMYMVMEYCVCGMQEMLDSVPEKRFPVCQAHGYFCQLIDGLEYLHSQGIVHKDIKPGNLLLTTGGTLKISDLGVAEALHPFAADDTCRTSQGSPAFQPPEIANGLDTFSGFKVDIWSAGVTLYNITTGLYPFEGDNIYKLFENIGKGSYAIPGDCGPPLSDLLKGMLEYEPAKRFSIRQIRQHSWFRKKHPPAEAPVPIPPSPDTKDRWRSMTVVPYLEDLHGADEDEDLFDLEDDIIYTQDFTVPGQVPEEEASHNGQRRGLPKAVCMNGTEAAQLSTKSRAEGRAPNPARKACSASSKIRRLSACKQQ [I356L] | 1.15 ± 0.38 |
| MEVVDPQQLGMFTEGELMSVGMDTFIHRIDSTEVIYQPRRKRAKLIGKYLMGDLLGEGSYGKVKEVLDSETLCRRAVKILKKKKLRRIPNGEANVKKEIQLLRRLRHKNVIQLVDVLYNEEKQKMYMVMEYCVCGMQEMLDSVPEKRFPVCQAHGYFCQLIDGLEYLHSQGIVHKDIKPGNLLLTTGGTLKISDLGVAEALHPFAADDTCRTSQGSPAFQPPEIANGLDTFSGFKVDIWSAGVTLYNITTGLYPFEGDNIYKLFENIGKGSYAIPGDCGPPLSDLLKGMLEYEPAKRFSIRQIRQHSWFRKKHPPAEAPVPIPPSPDTKDRWRSMTVVPYLEDLHGADEDEDLFDIEDDIIYTQDFTVPGQVPEEEASHNGQRRGLPKAVCMNGTEAAQLSTKSRAEGRAPNPARKACSASSKIRRASACKQQ [L427A] | 1.6 ± 0.32 |
| MEVVDPQQLGMFTEGELMSVGMDTFIHRIDSTEVIYQPRRKRAKLIGKYLMGDLLGEGSYGKVKEVLDSETLCRRAVKILKKKKLRRIPNGEANVKKEIQLLRRLRHKNVIQLVDVLYNEEKQKMYMVMEYCVCGMQEMLDSVPEKRFPVCQAHGYFCQLIDGLEYLHSQGIVHKDIKPGNLLLTTGGTLKISDLGVAEALHPFAADDTCRTSQGSPAFQPPEIANGLDTFSGFKVDIWSAGVTLYNITTGLYPFEGDNIYKLFENIGKGSYAIPGDCGPFLSDLLKGMLEYEPAKRFSIRQIRQHSWFRKKHPPAEAPVPIPPSPDTKDRWRSMTVVPYLEDLHGADEDEDLFDIEDDIIYTQDFTVPGQVPEEEASHNGQRRGLPKAVCMNGTEAAQLSTKSRAEGRAPNPARKACSASSKIRRLSACKQQ [P281F] | 1.23 ± 0.2 |
| MEVVDPQQLGMFTEGELMSVGMDTFIHRIDSTEVIYQPRRKRAKLIGKYLMGDLLGEGSYGKVKEVLDSETLCRRAVKILKKKKLRRIPNGEANVKKEIQLLRRLRHKNVIQLVDVLYNEEKQKMYMVMEYCVCGMQEMLDSVPEKRFPVCQAHGYFCQLIDGLEYLHSQGIVHKDIKPGNLLLTTGGTLKISDLGAAEALHPFAADDTCRTSQGSPAFQPPEIANGLDTFSGFKVDIWSAGVTLYNITTGLYPFEGDNIYKLFENIGKGSYAIPGDCGPPLSDLLKGMLEYEPAKRFSIRQIRQHSWFRKKHPPAEAPVPIPPSPDTKDRWRSMTVVPYLEDLHGADEDEDLFDIEDDIIYTQDFTVPGQVPEEEASHNGQRRGLPKAVCMNGTEAAQLSTKSRAEGRAPNPARKACSASSKIRRLSACKQQ [V197A] | 1.26 ± 0.69 |
| MEVVDPQQLGMFTEGELMSVGMDTFIHRIDSTEVIYQPRRKRAKLIGKYLMGDLLGEGSYGKVKEVLDSETLCRRAVKILKKKKLRRIPNGEANVKKEIQLLRRLRHKNVIQLVDVLYNEEKQKMYMVMEYCVCGMQEMLDSVPEKRFPVCQAHGYFCQLIDGLEYLHSQGIVHKDIKPGNLLLTTGGTLKISDLGVAEALHPFAADDTCRTSQGSPAFQPPEIANGLDTFSGFKVDIWSAGVTLYNITTGLYPFEGDNIYKLFENIGKGSYAIPGDCGPPLSDLLKGMLEYEPAKRFSIRQIRQHSWFRKKHPPAEAPVPIPPSPDTKDRWRSMTVVPYLEDLHGADEDEDLFDIEDDIIYTQDFTVPGQVPEEEASHNGQRRGLPKSVCMNGTEAAQLSTKSRAEGRAPNPARKACSASSKIRRLSACKQQ [A389S] | 1.38 ± 0.32 |
| MEVVDPQQLGMFTEGELMSVGMDTFIHRIDSTEVIYQPRRKRAKLIGKYLMGDLLGEGSYGKVKEVLDSETLCRRAVKILKKKKLRRIPNGEANVKKEIQLLRRLRHKNVIQLVDVLYNEEKQKMYMVMEYCVCGMQEMLDSVPEKRFPVCQAHGYFCQLIDGLEYLHSQGIVHKDIKPGNLLLTTGGILKISDLGVAEALHPFAADDTCRTSQGSPAFQPPEIANGLDTFSGFKVDIWSAGVTLYNITTGLYPFEGDNIYKLFENIGKGSYAIPGDCGPPLSDLLKGMLEYEPAKRFSIRQIRQHSWFRKKHPPAEAPVPIPPSPDTKDRWRSMTVVPYLEDLHGADEDEDLFDIEDDIIYTQDFTVPGQVPEEEASHNGQRRGLPKAVCMNGTEAAQLSTKSRAEGRAPNPARKACSASSKIRRLSACKQQ [T189I] | 1.33 ± 0.82 |
| MEVVDPQQLGMFTEGELMSVGMDTFIHRIDSTEVIYQPRRRRAKLIGKYLMGDLLGEGSYGKVKEVLDSETLCRRAVKILKKKKLRRIPNGEANVKKEIQLLRRLRHKNVIQLVDVLYNEEKQKMYMVMEYCVCGMQEMLDSVPEKRFPVCQAHGYFCQLIDGLEYLHSQGIVHKDIKPGNLLLTTGGTLKISDLGVAEALHPFAADDTCRTSQGSPAFQPPEIANGLDTFSGFKVDIWSAGVTLYNITTGLYPFEGDNIYKLFENIGKGSYAIPGDCGPPLSDLLKGMLEYEPAKRFSIRQIRQHSWFRKKHPPAEAPVPIPPSPDTKDRWRSMTVVPYLEDLHGADEDEDLFDIEDDIIYTQDFTVPGQVPEEEASHNGQRRGLPKAVCMNGTEAAQLSTKSRAEGRAPNPARKACSASSKIRRLSACKQQ [K41R] | 1.6 ± 0.33 |
| MEVVDPQQLGMFTEGELMSVGMDTFIHRIDSTEVIYQPRRKRAKLIGKYLMGDLLGEGSYGKVKEVLDSETLCRRAVKILKKKKLRRIPNGEANVKKEIQLLRRLRHKNVIQLVDVLYNEEKQKMYMVMEYCVCGMQEMLDSVPEKRFPVCQAHGYFCQLIDGLEYLHSQGIVHKDIKPGNLLLTTGGTLKISDLGVAEALHPFAADDTCRTSQGSPMFQPPEIANGLDTFSGFKVDIWSAGVTLYNITTGLYPFEGDNIYKLFENIGKGSYAIPGDCGPPLSDLLKGMLEYEPAKRFSIRQIRQHSWFRKKHPPAEAPVPIPPSPDTKDRWRSMTVVPYLEDLHGADEDEDLFDIEDDIIYTQDFTVPGQVPEEEASHNGQRRGLPKAVCMNGTEAAQLSTKSRAEGRAPNPARKACSASSKIRRLSACKQQ [A218M] | 1.35 ± 0.59 |
| MEVVDPQQLGMFTEGELMSVGMDTFIHRIDSTEVIYQPRRKRAKLIGKYLMGDLLGEGSYGKVKEVLDSETLCRRAVKILKKKKLRRIPNGEANVKKEIQLLRRLRHKNVIQLVDVLYNEEKQKMYMVMEYCVCGMQEMLDSVPEKRFPVCQAHGYFCQLIDGLEYLHSQGPVHKDIKPGNLLLTTGGTLKISDLGVAEALHPFAADDTCRTSQGSPAFQPPEIANGLDTFSGFKVDIWSAGVTLYNITTGLYPFEGDNIYKLFENIGKGSYAIPGDCGPPLSDLLKGMLEYEPAKRFSIRQIRQHSWFRKKHPPAEAPVPIPPSPDTKDRWRSMTVVPYLEDLHGADEDEDLFDIEDDIIYTQDFTVPGQVPEEEASHNGQRRGLPKAVCMNGTEAAQLSTKSRAEGRAPNPARKACSASSKIRRLSACKQQ [I172P] | -0.291 ± 0.062 |
| MEVVDPQQMGMFTEGELMSVGMDTFIHRIDSTEVIYQPRRKRAKLIGKYLMGDLLGEGSYGKVKEVLDSETLCRRAVKILKKKKLRRIPNGEANVKKEIQLLRRLRHKNVIQLVDVLYNEEKQKMYMVMEYCVCGMQEMLDSVPEKRFPVCQAHGYFCQLIDGLEYLHSQGIVHKDIKPGNLLLTTGGTLKISDLGVAEALHPFAADDTCRTSQGSPAFQPPEIANGLDTFSGFKVDIWSAGVTLYNITTGLYPFEGDNIYKLFENIGKGSYAIPGDCGPPLSDLLKGMLEYEPAKRFSIRQIRQHSWFRKKHPPAEAPVPIPPSPDTKDRWRSMTVVPYLEDLHGADEDEDLFDIEDDIIYTQDFTVPGQVPEEEASHNGQRRGLPKAVCMNGTEAAQLSTKSRAEGRAPNPARKACSASSKIRRLSACKQQ [L9M] | 1.01 ± 0.32 |
